Data published in publication PMC4963926 (Journal of Translational Medicine, 2016).

B1: HPV11 His6-E6 protein (natural protein)
chain: MESKDASTSATSIDQLCKTFNLSLHTLQIQCVFCRNALTTAEIYAYAYKNLKVVWRDNFPFAACACCLELQGKINQYRHFNYAAYAPTVEEETNEDILKVLIRCYLCHKPLCEIEKLKHILGKARFIKLNNQWKGRCLHCWTTCMEDLLP
B2: HPV16 His6-E6 protein (natural protein)
chain: MHQKRTAMFQDPQERPRKLPQLCTELQTTIHDIILECVYCKQQLLRREVYDFAFRDLCIVYRDGNPYAVCDKCLKFYSKISEYRHYCYSLYGTTLEQQYNKPLCDLLIRCINCQKPLCPEEKQRHLDKKQRFHNIRGRWTGRCMSCCRSSRTRRETQL
notes: also called HR-HPV16 His6-E6; HPV16 E6

Target: the molecule itself
Experiment: SDS-PAGE and immunoblotting of the purified protein

| Protein | binding result |
| --- | --- |
| B1 | binds |
| B2 | binds |
